Target: REK7 (endogenous, on rat E16 cortical neurons) (rat)
Test: cell-based or functional assay

tyrosine autophosphorylation of REK7 (immunoprecipitation with anti-REK7, anti-phosphotyrosine blot): 2 fold
Substance: soluble AL-1 (purified from BT20 conditioned medium) (ligand)
